{
  "source": "patent US20170349663A1",
  "about": "(Memorial Sloan Kettering, published 2017)",
  "target": "full-length human EphA2 protein on cells (human, UniProt P29317 24-976)",
  "sequence (P29317 24-976)": "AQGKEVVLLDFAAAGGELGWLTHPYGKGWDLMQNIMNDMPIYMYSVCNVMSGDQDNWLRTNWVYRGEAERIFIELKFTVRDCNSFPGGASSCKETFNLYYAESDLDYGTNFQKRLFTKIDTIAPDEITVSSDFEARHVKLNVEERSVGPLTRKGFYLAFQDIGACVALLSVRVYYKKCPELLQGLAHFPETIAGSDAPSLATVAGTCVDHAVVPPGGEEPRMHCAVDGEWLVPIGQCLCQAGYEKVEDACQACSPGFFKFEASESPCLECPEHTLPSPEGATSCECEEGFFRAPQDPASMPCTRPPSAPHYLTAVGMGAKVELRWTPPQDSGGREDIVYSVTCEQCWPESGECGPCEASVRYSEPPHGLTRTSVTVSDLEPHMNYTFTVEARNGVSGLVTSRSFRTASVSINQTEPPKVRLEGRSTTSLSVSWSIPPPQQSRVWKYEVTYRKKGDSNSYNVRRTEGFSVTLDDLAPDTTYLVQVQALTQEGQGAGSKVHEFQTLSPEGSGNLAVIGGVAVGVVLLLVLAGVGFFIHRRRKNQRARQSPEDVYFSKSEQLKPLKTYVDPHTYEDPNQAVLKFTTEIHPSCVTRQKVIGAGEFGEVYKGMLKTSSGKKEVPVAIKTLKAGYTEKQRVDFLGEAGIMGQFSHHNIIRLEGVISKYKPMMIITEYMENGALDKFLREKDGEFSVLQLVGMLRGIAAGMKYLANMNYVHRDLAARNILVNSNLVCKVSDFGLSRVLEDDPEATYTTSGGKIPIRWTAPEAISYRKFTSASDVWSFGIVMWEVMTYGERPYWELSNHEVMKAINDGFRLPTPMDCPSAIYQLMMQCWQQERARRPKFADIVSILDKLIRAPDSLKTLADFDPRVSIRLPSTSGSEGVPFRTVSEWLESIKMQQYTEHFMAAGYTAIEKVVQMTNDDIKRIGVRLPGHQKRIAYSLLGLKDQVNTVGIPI",
  "experiment": "cell-based or functional assay",
  "data": [
    {"binder": "anti-EphA2 scFv antibody D2, monomeric scFv-6xHis (scFv) scFv: EIVLTQSPGTLSLSPGERATLSCRASQSVSSSNLAWYQQKPGQAPRLLIYGASSRATGVPDRFSGSGSGTDFTLTISRLEPEDFAVYYCQQSSSYPWTFGQGTKVEIKRTGGGGSGAGGSGGGGTGGGGSEVQLLESGGGLVQPGGSLRLSCAASGFTFSRYWMHWVRQAPGKGLEWVSSISPYDGETNYADSVKGRFTISRDNSKNTLYLQMNSLRAEDTAVYYCARISEWYNWAVDVFDYWGQGTLVTVSSHHHHHH", "values": [
      {"measurement": "decrease in cell number after 72 hours in culture relative to vehicle control treatment, 0.5 ug, EphA2-high AML cells", "result": 52.6, "unit": "%"},
      {"measurement": "decrease in cell number after 72 hours in culture relative to vehicle control treatment, 1.0 ug, EphA2-high AML cells", "result": 99.3, "unit": "%"}
    ]}
  ]
}
